Results reported in patent US20230212319A1, “NOVEL ANTIGEN BINDING DOMAINS AND SYNTHETIC ANTIGEN RECEPTORS INCORPORATING THE SAME” (University of Southern California, priority 2020, published 2023).

How the values were obtained:
RAJI cells = experiment: JNG assay, co-culture with RAJI cells; format: cell-based; settings: JNG cells expressing construct, co-culture with Raji
How it was run: (§1)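 Read-out is NFAT-driven GFP measured by flow cytometry after ~4–18 h co-culture of SAR-expressing JNG cells with target cells (E:T about 1:2). SARs were introduced by lentiviral spinfection and selected with puromycin or blasticidin when possible; scores (+/- to 5+ ≈ 5–50% GFP+) are relative to parental JNG cells.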

L363 cells = experiment: JNG assay, co-culture with L363 cells; format: cell-based; settings: co-culture with L363
How it was run: as §1

B1: 22073 (protein)
chain: MALPVTALLLPLALLLHAARPQLQLQESGPGLVKPSETLSLTCTVSGDSISSGDYYWGWIRQPPGKGLEWIGHIYYSGVTYYNPSLKSRVTISVDTSRNQFSLKLSSVTAADTAVYYCTREDSSNWRSRGQGTLVTVSSLEGQPKANPTVTLFPPSSEELQANKATLVCLISDFYPGAVTVAWKADGSPVKAGVETTKPSKQSNNKYAASSYLSLTPEQWKSHRSYSCQVTHEGSTVEKTVAPTECSGRADCGFTSESYQQGVLSATILYEILLGKATLYAVLVSALVLMAMVKRKDSRGRAKRSGSGATNFSLLKQAGDVEENPGPTSMDWIWRILFLVGAATGAHSFEVQLLESGGGLIQPGGSLRLSCAASGFTFSSHAMTWVRQAPGKGLEWVSAISGSGDYTHYADSVKGRFTISRDNSKNTVYLQMNSLRAEDSAVYYCAKDEDGGSLLGHRGQGTLVTVSSTRIQNPDPAVYQLRDSKSSDKSVCLFTDFDSQTNVSQSKDSDVYITDKCVLDMRSMDFKSNSAVAWSNKSDFACANAFNNSIIPEDTFFPSPESSCDVKLVEKSFETDTNLNFQNLSVIGFRILLLKVAGFNLLMTLRLWSSRAKRSGSGVKQTLNFDLLKLAGDVESNPGPSRGHMTEYKPTVRLATRDDVPRAVRTLAAAFADYPATRHTVDPDRHIERVTELQELFLTRVGLDIGKVWVADDGAAVAVWTTPESVEAGAVFAEIGPRMAELSGSRLAAQQQMEGLLAPHRPKEPAWFLATVGVSPDHQGKGLGSAVVLPGVEAAERAGVPAFLETSAPRNLPFYERLGFTVTADVEVPEGPRTWCMTRKPGA
NFAT-GFP ASSAY: Raji (RAJI cells): +/- (refer to approximately 5%, 10%, 20%, 30%, 40% and 50% GFP positive cells)
NFAT-GFP ASSAY: L363 (L363 cells): +/- (refer to approximately 5%, 10%, 20%, 30%, 40% and 50% GFP positive cells)

B2: 22076 (protein)
chain: MALPVTALLLPLALLLHAARPQLQLQESGPGLVKPSETLSLTCTVSGDSISSGDYYWGWIRQPPGKGLEWIGHIYYSGVTYYNPSLKSRVTISVDTSRNQFSLKLSSVTAADTAVYYCTREDSSNWRSRGQGTLVTVSSLESGGGGSFEQVQLVESGGGLVQPGGSLRLSCAASGFTFTNHAMSWVRQAPGKGLELVSSISGNGRTTYYADSVKGRFTISRDISKNTLDLQMNSLRAEDTAVYYCAKDGGETLVDSRGQGTLVTVSSTRASTKGPSVFPLAPSSKSTSGGTAALGCLVKDYFPEPVTVSWNSGALTSGVHTFPAVLQSSGLYSLSSVVTVPSSSLGTQTYICNVNHKPSNTKVDKRVEPKSCIPEDTFFPSPESSCDVKLVEKSFETDTNLNFQNLSVIGFRILLLKVAGFNLLMTLRLWSSRAKRSGSGVKQTLNFDLLKLAGDVESNPGPSRGHMTEYKPTVRLATRDDVPRAVRTLAAAFADYPATRHTVDPDRHIERVTELQELFLTRVGLDIGKVWVADDGAAVAVWTTPESVEAGAVFAEIGPRMAELSGSRLAAQQQMEGLLAPHRPKEPAWFLATVGVSPDHQGKGLGSAVVLPGVEAAERAGVPAFLETSAPRNLPFYERLGFTVTADVEVPEGPRTWCMTRKPGA
NFAT-GFP ASSAY: Raji (RAJI cells): +/- (refer to approximately 5%, 10%, 20%, 30%, 40% and 50% GFP positive cells)
NFAT-GFP ASSAY: L363 (L363 cells): + (refer to approximately 5%, 10%, 20%, 30%, 40% and 50% GFP positive cells)

B3: 22078 (protein)
chain: MALPVTALLLPLALLLHAARPQLQLQESGPGLVKPSETLSLTCTVSGDSISSGDYYWGWIRQPPGKGLEWIGHIYYSGVTYYNPSLKSRVTISVDTSRNQFSLKLSSVTAADTAVYYCTREDSSNWRSRGQGTLVTVSSLESGGGGSFEEVQLLESGGGLVQPGGSLRLSCAASGFTFSSYAMSWVRQAPGKGLEWVSSISGSGDYIYYADSVKGRFTISRDISKNTLYLQMNSLRAEDTAVYYCAKEGTGANSSLADYRGQGTLVTVSSTRASTKGPSVFPLAPSSKSTSGGTAALGCLVKDYFPEPVTVSWNSGALTSGVHTFPAVLQSSGLYSLSSVVTVPSSSLGTQTYICNVNHKPSNTKVDKRVEPKSCEVKTDSTDHVKPKETENTKQPSKSCHKPKAIVHTEKVNMMSLTVLGLRMLFAKTVAVNFLLTAKLFFLRAKRSGSGVKQTLNFDLLKLAGDVESNPGPSRGHMTEYKPTVRLATRDDVPRAVRTLAAAFADYPATRHTVDPDRHIERVTELQELFLTRVGLDIGKVWVADDGAAVAVWTTPESVEAGAVFAEIGPRMAELSGSRLAAQQQMEGLLAPHRPKEPAWFLATVGVSPDHQGKGLGSAVVLPGVEAAERAGVPAFLETSAPRNLPFYERLGFTVTADVEVPEGPRTWCMTRKPGA
NFAT-GFP ASSAY: Raji (RAJI cells): +/- (refer to approximately 5%, 10%, 20%, 30%, 40% and 50% GFP positive cells)
NFAT-GFP ASSAY: L363 (L363 cells): +/- (refer to approximately 5%, 10%, 20%, 30%, 40% and 50% GFP positive cells)

B4: 22087 (protein)
chain: MALPVTALLLPLALLLHAARPQVQLVESGGGLVQPGGSLRLSCAASGFTFTNHAMSWVRQAPGKGLELVSSISGNGRTTYYADSVKGRFTISRDISKNTLDLQMNSLRAEDTAVYYCAKDGGETLVDSRGQGTLVTVSSLEGSGGGGSGGGGSGEDLKNVFPPEVAVFEPSEAEISHTQKATLVCLATGFYPDHVELSWWVNGKEVHSGVCTDPQPLKEQPALNDSRYCLSSRLRVSATFWQNPRNHFRCQVQFYGLSENDEWTQDRAKPVTQIVSAEAWGRADCGFTSESYQQGVLSATILYEILLGKATLYAVLVSALVLMAMVKRKDSRGRAKRSGSGATNFSLLKQAGDVEENPGPTSMDWIWRILFLVGAATGAHSFEEVQLLESGGGLVQPGGSLRLSCAASGFTFSSYAMSWVRQAPGKGLEWVSSISGSGDYIYYADSVKGRFTISRDISKNTLYLQMNSLRAEDTAVYYCAKEGTGANSSLADYRGQGTLVTVSSTRGSIPEDTFFPSPESSCDVKLVEKSFETDTNLNFQNLSVIGFRILLLKVAGFNLLMTLRLWSS
NFAT-GFP ASSAY: Raji (RAJI cells): + (refer to approximately 5%, 10%, 20%, 30%, 40% and 50% GFP positive cells)
NFAT-GFP ASSAY: L363 (L363 cells): 2+ (refer to approximately 5%, 10%, 20%, 30%, 40% and 50% GFP positive cells)

B5: 22089 (protein)
chain: MALPVTALLLPLALLLHAARPQLQLQESGPGLVKPSETLSLTCTVSGDSISSGDYYWGWIRQPPGKGLEWIGHIYYSGVTYYNPSLKSRVTISVDTSRNQFSLKLSSVTAADTAVYYCTREDSSNWRSRGQGTLVTVSSLEGSGRADCGFTSESYQQGVLSATILYEILLGKATLYAVLVSALVLMAMVKRKDSRGRAKRSGSGATNFSLLKQAGDVEENPGPTSMDWIWRILFLVGAATGAHSFEVQLLESGGGLIQPGGSLRLSCAASGFTFSSHAMTWVRQAPGKGLEWVSAISGSGDYTHYADSVKGRFTISRDNSKNTVYLQMNSLRAEDSAVYYCAKDEDGGSLLGHRGQGTLVTVSSTRIQNPDPAVYQLRDSKSSDKSVCLFTDFDSQTNVSQSKDSDVYITDKCVLDMRSMDFKSNSAVAWSNKSDFACANAFNNSIIPEDTFFPSPESSCDVKLVEKSFETDTNLNFQNLSVIGFRILLLKVAGFNLLMTLRLWSSRAKRSGSGVKQTLNFDLLKLAGDVESNPGPSRGHMTEYKPTVRLATRDDVPRAVRTLAAAFADYPATRHTVDPDRHIERVTELQELFLTRVGLDIGKVWVADDGAAVAVWTTPESVEAGAVFAEIGPRMAELSGSRLAAQQQMEGLLAPHRPKEPAWFLATVGVSPDHQGKGLGSAVVLPGVEAAERAGVPAFLETSAPRNLPFYERLGFTVTADVEVPEGPRTWCMTRKPGA
NFAT-GFP ASSAY: Raji (RAJI cells): + (refer to approximately 5%, 10%, 20%, 30%, 40% and 50% GFP positive cells)
NFAT-GFP ASSAY: L363 (L363 cells): 2+ (refer to approximately 5%, 10%, 20%, 30%, 40% and 50% GFP positive cells)

B6: 22147 (protein)
chain: MALPVTALLLPLALLLHAARPACEVQLLESGGGLIQPGGSLRLSCAASGFTFSSHAMTWVRQAPGKGLEWVSAISGSGDYTHYADSVKGRFTISRDNSKNTVYLQMNSLRAEDSAVYYCAKDEDGGSLLGHRGQGTLVTVSSGTGGGGSGGGGSGGGGSEFDIQMTQSPSSLSASVGDRVTITCRASQDISNYLNWYQQKPGKAVKLLIYYTSILHSGVPSRFSGSGSGTDYTLTISSLQPEDFATYFCQQGNTLPWTFGGGTKVEIKLEADVSPKPTIFLPSIAETKLQKAGTYLCLLEKFFPDVIKIHWQEKKSNTILGSQEGNTMKTNDTYMKFSWLTVPEKSLDKEHRCIVRHENNKNGVDQEIIFPPIKTDVITMDPKDNCSKDANDTLLLQLTNTSAYYMYLLLLLKSVVYFAIITCCLLRRTAFCCNGEKSRAKRSGSGATNFSLLKQAGDVEENPGPTSMDWIWRILFLVGAATGAHSGPQVQLQESGGGLAQAGGSLRLSCAASGRTFSMGWFRQAPGKEREFVAAITYSGGSPYYASSVRGRFTISRDNAKNTVYLQMNSLKPEDTAVYYCAANPTYGSDWNAENWGQGTQVTVSSGSGGGGSGGGGSGGGGSFEVQLVESGGGLVKPGGSLKLSCAASGFAFSIYDMSWVRQAPGKGLEWVAYISSGGGTTYYPDTVKGRFTISRDNAKNTLYLQMSSLRAEDTAMYYCARHSGYGSSYGVLFAYWGQGTLVTVSSTRPHTKPSVFVMKNGTNVACLVKEFYPKDIRINLVSSKKITEFDPAIVISPSGKYNAVKLGKYEDSNSVTCSVQHDNKTVHSTDFEVKTDSTDHVKPKETENTKQPSKSCHKPKAIVHTEKVNMMSLTVLGLRMLFAKTVAVNFLLTAKLFFLRAKRSGSGVKQTLNFDLLKLAGDVESNPGPSRGHMTEYKPTVRLATRDDVPRAVRTLAAAFADYPATRHTVDPDRHIERVTELQELFLTRVGLDIGKVWVADDGAAVAVWTTPESVEAGAVFAEIGPRMAELSGSRLAAQQQMEGLLAPHRPKEPAWFLATVGVSPDHQGKGLGSAVVLPGVEAAERAGVPAFLETSAPRNLPFYERLGFTVTADVEVPEGPRTWCMTRKPGA
NFAT-GFP ASSAY: Raji (RAJI cells): + (refer to approximately 5%, 10%, 20%, 30%, 40% and 50% GFP positive cells)
NFAT-GFP ASSAY: L363 (L363 cells): + (refer to approximately 5%, 10%, 20%, 30%, 40% and 50% GFP positive cells)
